Laboratory results: PMC7041945, “Misfolded proteins bind and activate death receptor 5 to trigger apoptosis during unresolved endoplasmic reticulum stress” (eLife, 2020)

Columns and labels:
[1] = tested on: CHOP, BiP, and DR5 mRNA in HCT116 cells; experiment: qPCR of UPR target transcripts (CHOP, BiP, DR5); assay type: cell-based, Homo sapiens; settings: HCT116, transfected 24 hr
Experimental: Cells were grown in 6-well plates and harvested with 0.5 ml of TRIzol reagent (Life Technologies) per manufacturer’s protocol to extract RNA. For cDNA synthesis, 500 ng of total RNA was reverse transcribed with 2 μl of the SuperScript VILO master mix (Life Technologies # 11755050) in a total reaction volume of 10 μl following the manufacturer’s protocol for reaction temperature and duration. The reverse transcription product was diluted to 200 μl with 10 mM Tris-HCl pH 8.2 and used at 1:100 dilution for subsequent RT-PCR reactions.
PCR samples were prepared as described by manufacturer’s protocols from iQ SYBR Green Supermix (BioRad #17088800).
For each experiment, qRT-PCR reactions were set up in triplicate and run using a CFX96 Real Time System (Bio-Rad). Quantitation cycles were determined with CFX Manager 3.0 software (Bio-Rad) and then normalized to GAPDH as an internal control.

DR5 = DR5 immunoprecipitation (blotted for DR5, MPZ-GFP, FADD); assay type: cell-based, Homo sapiens; settings: HCT116 transfected with MPZ-GFP
Experimental: IP for DR5 was performed as previously described in [Lu et al. (2014)], using anti-DR5 mAb 5C7-conjugated agarose beads gifted by David Lawrence of the Ashkenazi lab at Genentech Inc.

B1: MPZ-GFP: myelin protein zero with a C-terminal monomeric EGFP, expressed from plasmid (protein)
chain: IVVYTDREVHGAVGSRVTLHCSFWSSEWVSDDISFTWRYQPEGGRDAISIFHYAKGQPYIDEVGTFKERIQWVGDPRWKDGSIVIHNLDYSDNGTFTCDVKNPPDIVGKTSQVTLYVFEKVPTRYGVVLGAVIGGVLGVVLLLLLLFYVVRYCWLRRQAALQRRLSAMEKGKLHKPGKDASKRGRQTPVLYAMLDHSRSTKAVSEKKAKGLGESRKDKK
modifications: left off: monomeric EGFP, C-terminal, kept
notes: myelin protein zero with a C-terminal monomeric EGFP, expressed from plasmid
UPR target gene transcription [1]: dose-dependent upregulation of the UPR transcriptional target genes CHOP, BiP, and DR5 | DR5 pull-down (DR5): enriched for FADD and MPZ-GFP
